The record followed here is paper PMC13480635.

Experiment [1] deals with Trypanosoma brucei gambiense variant surface glycoprotein LiTat 1.3 (Lille Trypanozoon antigen type 1.3) (Trypanosoma brucei gambiense). In words: SEC-MALS; Agilent Bio SEC-3 column, PBS; samples at 0.5 mg/mL and 5 mg/mL, 50 uL injected. On the technique in general: In gel filtration, larger molecules generally elute earlier.
The target is the same in experiment [2]. In words: SAXS; SEC-SAXS, Shodex KW404-4F column, 20 mM HEPES, 150 mM NaCl, 3% glycerol, pH 7.4; 50 uL at 15.51 mg/mL injected; curve from the first (major) elution peak.

Consider “Trypanosoma brucei gambiense variant surface glycoprotein LiTat 1.3 (Lille Trypanozoon antigen type 1.3) (natural protein)”, for which the stoichiometry N in experiment [1] and in experiment [2] was 3 each time.
